# From patent US20240101667A1, “METHODS FOR IDENTIFYING LILRB-BLOCKING ANTIBODIES” (THE BOARD OF REGENTS OF THE UNIVERSITY OF TEXAS SYSTEM, priority 2020, published 2024)
# B1: anti-LILRB3 #1 N297A: IgG #1 with Fc glycosylation N297A mutation, defective Fc-mediated effector functions (antibody, V domains shown)
# VH: EVQLVESGGGVVQPGRSLRLSCAASGFTFSSYGMHWVRQAPGKGLEWVAFIRYDGSNKYYADSVKGRFTISRDNSKNTLYLQMNSLRAEDTAVYYCAKAGFSGWYYYGMDVWGQGTMVTVSS
# VL: DIVMTQSPSSLSASVGDRLTITCRASQSISTYLNWYQQKPGKAPKLLIYGASSLQSGVPSRFSGSGSGTDFTLTISSLQPEDFATYFCQQSYGLPLTFGGGTKVDIK
# Tests used:
# Format in all cases: in vivo, mouse
# [1] = tested on: MLL-AF9 AML cells expressing B3-FL or B3delICD; test: Immuno-competent mice transplanted with MLL-AF9 AML cells expressing B3-FL or B3delICD; conditions: versus control IgG
# Excerpt: FIGS. 7A-N. Blocking anti-LILRB3 antibody prevents monocytic AML development. (FIG. 7A) Epitope binning of 30 high-affinity IgGs. (FIG. 7B) CFU assay of mouse MLL-AF9 AML cells in the presence of above IgGs (n=3 independent experiments). (FIG. 7C) Binding affinities of the two IgGs from bin #3. (FIG. 7D) Upper: Schematic of treatment. Lower: Percentages of GFP^+ MLL-AF9 mouse AIL cells in peripheral blood (PB), bone marrow (BM), spleen (SPL), and liver (LV) of mice transplanted with AML cells expressing B3-FL or B3delICD and injected with IgG or anti-LILRB3 #1 N297A (n=3 independent mice). (FIG. 7E) Overall survival of mice transplanted with indicated AML cells as above. (FIG. 7F) CFU assay of MLL-AF9 mouse AML cells expressing B3-FL or B3delICD in the presence of IgG or anti-LILRB3 #1 N297A (n=3 independent experiments) (FIG. 7G) Upper: Schematic of treatment. Recipient mice were injected with mouse IgG or anti-mCD8 to deplete CD8 T cells. Lower: Percentages of GFP^+ MLL-AF9 mouse AML cells in peripheral blood (PB), bone marrow (BM), spleen (SPL), and liver (LV) of mice transplanted with AML cells expressing B3-FL or B3delICD and injected with IgG or anti-LILRB3 #1 LALAPG (n=4 mice). (FIG. 7H) Survival of mice as in panel h (n=4 independent mice). (FIG. 7I) Upper: Schematic of treatment. Lower: Whole-body images of NSG mice transplanted with luciferase-expressing THP-1 cells and treated with IgG or anti-LILRB3 #1 N297A (#1NA). (FIG. 7J) Overall survival of the mice shown in panel h (n=3 independent mice). (FIG. 7K) Upper: Schematic of treatment. Lower: Whole-body images of NSG mice transplanted with luciferase-expressing Molm13 cells, injected with activated T cells, and treated with IgG or #1NA. (FIG. 7L) Luciferase signaling as a function of time in mice treated as described in panel k. (FIG. 7M) Overall survival of mice treated as described in panel k (n=3 independent mice). […] The data are presented as mean±s.e.m, and p values were calculated by two-tailed t-test except for FIG. 7E, FIG. 7H, FIG. 7J and FIG. 7M by log-rank test. […]
# Molm13 AML cells = test: NSG mice with Molm13 AML cells and activated human T cells
# Excerpt: FIGS. 7A-N. Blocking anti-LILRB3 antibody prevents monocytic AML development. (FIG. 7A) Epitope binning of 30 high-affinity IgGs. (FIG. 7B) CFU assay of mouse MLL-AF9 AML cells in the presence of above IgGs (n=3 independent experiments). (FIG. 7C) Binding affinities of the two IgGs from bin #3. (FIG. 7D) Upper: Schematic of treatment. Lower: Percentages of GFP^+ MLL-AF9 mouse AIL cells in peripheral blood (PB), bone marrow (BM), spleen (SPL), and liver (LV) of mice transplanted with AML cells expressing B3-FL or B3delICD and injected with IgG or anti-LILRB3 #1 N297A (n=3 independent mice). (FIG. 7E) Overall survival of mice transplanted with indicated AML cells as above. (FIG. 7F) CFU assay of MLL-AF9 mouse AML cells expressing B3-FL or B3delICD in the presence of IgG or anti-LILRB3 #1 N297A (n=3 independent experiments) (FIG. 7G) Upper: Schematic of treatment. Recipient mice were injected with mouse IgG or anti-mCD8 to deplete CD8 T cells. Lower: Percentages of GFP^+ MLL-AF9 mouse AML cells in peripheral blood (PB), bone marrow (BM), spleen (SPL), and liver (LV) of mice transplanted with AML cells expressing B3-FL or B3delICD and injected with IgG or anti-LILRB3 #1 LALAPG (n=4 mice). (FIG. 7H) Survival of mice as in panel h (n=4 independent mice). (FIG. 7I) Upper: Schematic of treatment. Lower: Whole-body images of NSG mice transplanted with luciferase-expressing THP-1 cells and treated with IgG or anti-LILRB3 #1 N297A (#1NA). (FIG. 7J) Overall survival of the mice shown in panel h (n=3 independent mice). (FIG. 7K) Upper: Schematic of treatment. Lower: Whole-body images of NSG mice transplanted with luciferase-expressing Molm13 cells, injected with activated T cells, and treated with IgG or #1NA. (FIG. 7L) Luciferase signaling as a function of time in mice treated as described in panel k. (FIG. 7M) Overall survival of mice treated as described in panel k (n=3 independent mice). (FIG. 7N) Analyses of T cells in peripheral blood of mice treated as described in panel 1 at 22 days after Molm13 AML cell transplantation. Upper: Flow cytometry analyses. Lower: Plot of T cell percentages (n=3 independent mice). The data are presented as mean±s.e.m, and p values were calculated by two-tailed t-test except for FIG. 7E, FIG. 7H, FIG. 7J and FIG. 7M by log-rank test.
# Mice. C57BL/6J and NOD-SCID IL2Rγ-null (NSG) mice were purchased from and maintained at the animal core facility of the University of Texas Southwestern Medical Center. GFP-specific TCR mice (Jedi mice, JAX lab stock No: 028062) were purchased from the Jackson Lab. C57BL/6J CD45.1 mice were injected intraperitoneally with 1×10^6 irradiated MLL-AF9 mouse AML cells (3000 cGy) and LPS or LPS alone as a control. The injection was repeated 10 days later. […]
# [2] = tested on: human AML cells (CD45+/CD33+); test: M5 AML patient-derived xenograft in NSG mice (primary transplantation)
# Excerpt: (FIG. 8A) Upper: Schematic of treatment. NSG mice were transplanted with monocytic AML patient peripheral blood sample (depleted red blood cells) and given IgG or #1NA. […] (FIG. 8C) The percentages of human T cells in NSG mice treated as indicated in panel a (n=8 independent mice). (FIG. 8D) Overall survival of the NSG mice treated as indicated in panel a (n=8 independent mice). (FIG. 8E) Schematic of treatment. NSG mice were transplanted with monocytic AML cells (derived from BM of NSG mice engrafted with monocytic AML patient peripheral blood samples) with treatment of IgG or anti-LILRB3 #1 LALAPG. (FIG. 8F) Flow cytometry analyses of LILRB3 expression on human AML cells in the mouse bone marrow. (FIG. 8G) The percentages of human AML cells (CD45^+/CD33^+) in NSG mice after treatment of IgG or #1NA as indicated in panel e. (n=5 independent mice). (FIG. 8H) The percentages of human T cells in NSG mice treated as indicated in panel e (n=5 independent mice). (FIG. 8I), Survival of NSG mice treated as indicated in panel e (n=5 independent mice). The data are presented as mean s.e.m, and p values were calculated by two-tailed t-test except for d and i by log-rank test.
# Primary human leukemia. The primary human AML samples was obtained from the University of Texas Southwestern Medical Center. […] For primary transplantation, leukemia cells isolated from donor peripheral blood was injected into irradiated NSG mice (200 cGy), and antibody or IgG was introduced intravenously 8 days after injection. For secondary transplantation, human leukemia cells from frozen BM of NSG mice that were engrafted with patient AML cells were transplanted into sublethally-irradiated NSG recipients.
molecule,measurement,setting,value
B1,B3del ICD AML development,[1],no detectable difference
same,development of LILRB3-expressing (B3-FL) AML,[1],significantly delayed development of LILRB3-expressing AML
same,effect on mice without the injection of T cells,Molm13 AML cells; no T cells,little effect
same,T cells in treated mice,"Molm13 AML cells; peripheral blood, 22 days after Molm13 transplantation, versus IgG",significantly more T cells
same,leukemia in one of the treated mice,Molm13 AML cells; with activated human T cells,largely eliminated
same,leukemia progression,"Molm13 AML cells; with activated human T cells, antibody at day 8, versus IgG",significantly slower
same,percentages of human autologous T cells,[2]; NSG mice,increased the percentages of human autologous T cells
same,"AML burden in peripheral blood, bone marrow, spleen, and liver",[2]; versus IgG,significantly lower AML burden
same,survival,[2]; versus control IgG,significant survival advantage
